Patent US20190076505A1 (TORAY INDUSTRIES, published 2019)

molecular target: HLA-DRB1*04 molecules (human); assay: cell-based or functional assay

| Binder | IFN-γ production (ELISA) by CD4-positive T cells against peptide-pulsed PBMCs expressing HLA-DRB1*04 |
| --- | --- |
| ASEYRWHINFTT [polypeptide consisting of the amino acid sequence represented by SEQ ID NO: 45] | ≥ 1000 pg/mL |
| WGVFYYFVSALGITAGAH [polypeptide consisting of the amino acid sequence represented by SEQ ID NO: 38] | ≥ 1000 pg/mL |
| PLRLFLIIANTMAFQN [polypeptide consisting of the amino acid sequence represented by SEQ ID NO: 41] | ≥ 1000 pg/mL |
| VEYVWRNIILMSLLHLGALYGITL [polypeptide consisting of the amino acid sequence represented by SEQ ID NO: 37] | ≥ 1000 pg/mL |

The next lines start with the values.

| IFN-γ production (ELISA) by CD4-positive T cells against peptide-pulsed PBMCs expressing HLA-DRB1*04 | Binder |
| --- | --- |
| ≥ 1000 pg/mL | HRSYKARLPLRLFLI [polypeptide consisting of the amino acid sequence represented by SEQ ID NO: 40] |
| ≥ 1000 pg/mL | HVGWLLVRKHPAVKE [polypeptide consisting of the amino acid sequence represented by SEQ ID NO: 42] |
| ≥ 1000 pg/mL | AEKLVMFQRRYYKPGLL [polypeptide consisting of the amino acid sequence represented by SEQ ID NO: 43] |
| ≥ 1000 pg/mL | NATWLVNSAAHLFGYR [polypeptide consisting of the amino acid sequence represented by SEQ ID NO: 44] |
| ≥ 1000 pg/mL | TAGAHRLWSHRSYKARLPLR [polypeptide consisting of the amino acid sequence represented by SEQ ID NO: 39] |
